Data on two molecules can be found in publication PMC12783888.

* marks the point of attachment. AMC = Cc1cc(=O)oc2cc(N*)ccc12

Assay [1] addresses SplA allelic variant A1 (Staphylococcus aureus) (UniProt Q2FFS9).
Assay [2] concerns the target SplA allelic variant A3 (Staphylococcus aureus) (UniProt Q2FFS9).
The target in assay [3] is SplA allelic variant A4 (Staphylococcus aureus) (UniProt Q2FFS9).
In assay [4] the target is SplA allelic variant A5 (Staphylococcus aureus) (UniProt Q2FFS9).
In assay [5] the target is SplA allelic variant A6 (Staphylococcus aureus) (UniProt Q2FFS9).
The target in assay [6] is T1, SplA wildtype (S. aureus strain USA300 variant) (Staphylococcus aureus strain USA300) (UniProt Q2FFS9).
T1 sequence: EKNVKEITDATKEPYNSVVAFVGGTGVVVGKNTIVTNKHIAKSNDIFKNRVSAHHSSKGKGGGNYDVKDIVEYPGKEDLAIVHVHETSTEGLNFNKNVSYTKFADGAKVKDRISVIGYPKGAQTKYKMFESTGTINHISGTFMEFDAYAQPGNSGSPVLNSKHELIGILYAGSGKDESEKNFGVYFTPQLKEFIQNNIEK

On to Ac-Tyr-Leu-Tyr-{AMC}, for which the KM of Michaelis-Menten kinetics, cleavage of the fluorogenic substrate (AMC release) in assay [1] was 54 µM; in assay [2], 39 µM; in assay [3], 65 µM; in assay [4], 35 µM; in assay [5], 109 µM; in assay [6], 49 µM.

B1: Ac-VWLY-AMC (peptide)
peptide: Ac-VWLY-{AMC}
SMILES: CC(=O)N[C@H](C(=O)N[C@@H](Cc1c[nH]c2ccccc12)C(=O)N[C@@H](CC(C)C)C(=O)N[C@@H](Cc1ccc(O)cc1)C(=O)Nc1ccc2c(C)cc(=O)oc2c1)C(C)C
As to B1, the KM of Michaelis-Menten kinetics, cleavage of the fluorogenic substrate (AMC release) in assay [1] came out at 26 µM; in assay [2] it was 11 µM; in assay [3], 23 µM; in assay [4] it was 13 µM; in assay [5], 19 µM; in assay [6], 11 µM.
